The source of these data is patent publication US20250136677A1 (ZOETIS SERVICES, published 2025).

For test [1], the target named is T1, canine IL-31 protein (Canine_IL31) (canine).
T1 chain: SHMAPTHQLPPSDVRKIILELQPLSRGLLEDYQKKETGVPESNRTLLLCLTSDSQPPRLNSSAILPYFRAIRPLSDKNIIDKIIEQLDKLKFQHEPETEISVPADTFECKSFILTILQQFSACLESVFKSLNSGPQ
Put plainly: SPR (Biacore), IL-31 on chip, 1:1 fit.

Test [2] concerns the target T2, wildtype feline IL-31 protein (Feline_IL31_wildtype) (feline).
T2 construct: Full length feline IL-31 with C-terminal His tag, secreted from ExpiCHO cells; also called fIL-31
T2 chain: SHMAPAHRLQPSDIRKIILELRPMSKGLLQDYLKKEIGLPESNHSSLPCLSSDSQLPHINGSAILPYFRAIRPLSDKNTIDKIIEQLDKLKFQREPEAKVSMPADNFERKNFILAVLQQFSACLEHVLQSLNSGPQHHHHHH
Description: SPR (Biacore), IL-31 on chip, 1:1 fit. The procedure:
The affinity with which candidate mAbs bind canine and feline IL-31 was determined using surface plasmon resonance (SPR) on a Biacore system (Biocore Life Sciences (GE Healthcare), Uppsala, Sweden). To avoid affinity differences associated with differential surface preparation that can occur when immobilizing antibodies to surfaces; a strategy was employed where IL-31 was directly conjugated to the surface. Immobilization was obtained by amine coupling 5 μg/mL IL-31 using N-hydroxysuccinimide (NHS)/1-Ethyl-3-(3-dimethylaminopropyl) carbodiimide (EDC) chemistry. Chips were quenched with ethanolamine and the affinity with which all candidate mAbs bound to the immobilized IL-31 was evaluated. All curves were fit to a 1:1 model. […] Results for affinity measurements are described herein.

Substitutions are numbered along the chain they refer to. Numbers in names are those of the source.

B1: Feline 15H05 1.1 FW2 (antibody, V domains shown)
VH: QVLLVQSGAEVRTPGASVKIFCKASGYSFTSYTIHWLRQAPAQGLEWMGNINPTSGYTENNQRFKDRLTLTADTSTNTAYMELSSLRSADTAMYYCARWGFKYDGEWSFDVWGAGTTVTVSS
VL: EIQMTQSPSSLSASPGDRVTITCRASQGISIWLSWYQQKPGNIPKVLINKASNLHIGVPSRFSGSGSGTDFTLTISSLEPEDAATYYCLQSQTYPLTFGGGTKLEIK
notes: also called felinized 15H05 1.1 FW2
In test [1], B1 showed a dissociation rate constant (koff) of 1.66e-07 s⁻¹ and a kon of 384000 M⁻¹ s⁻¹. In test [2], this molecule came in with a Kd of 0.065 nM, an off-rate constant (koff) of 2.49e-05 s⁻¹ and a kon of 383000 M⁻¹ s⁻¹.

B2: Feline 15H05 VH3 mouse VL (antibody, V domains shown)
VH: B1 VH with T13K, A42E
VL: DIQMNQSPSSLSASLGDTITVTCRASQGISIWLSWYQQKPGNIPKVLINKASNLHIGVPPRFSGSGSGTHFTLTITSLQPEDIATYYCLQSQTYPLTFGGGTKLEIN
notes: Heterochimeric antibody; also called felinized 15H05 VH3 with mouse 15H05 VL (heterochimera)
In test [1], B2 yielded a koff of 2.64e-07 s⁻¹ and an on-rate (kon) of 100000 M⁻¹ s⁻¹. In test [2], this molecule returned a dissociation constant (Kd) of 0.177 nM, a dissociation rate constant (koff) of 1.57e-05 s⁻¹ and an association rate constant (kon) of 88900 M⁻¹ s⁻¹.

B3: Feline 15H05 1.1 FW1_3 (antibody, V domains shown)
VH: B1 VH
VL: B2 VL with N42K, I43V, V46L, N49Y, N107K
notes: Printed as 'Feline 15H05 1.1 FW13'
As for B3, in test [1], the koff came to 2.88e-08 s⁻¹ and the association rate constant (kon) stood at 6590 M⁻¹ s⁻¹. Further, in test [2], binding was put at a Kd of 0.0674 nM, the koff is 3.02e-05 s⁻¹ and the on-rate (kon) came out at 448000 M⁻¹ s⁻¹.

B4: Feline 15H05 VH2 mouse VL (antibody, V domains shown)
VH: B1 VH with S28G, L37V, A40S
VL: B2 VL
notes: also called felinized 15H05 VH2 with mouse 15H05 VL (heterochimera)
In test [1], B4 returned a koff of 0.000379 s⁻¹ and an association rate constant (kon) of 171000 M⁻¹ s⁻¹. Besides, in test [2], the equilibrium dissociation constant (Kd) is 1.61 nM, the off-rate constant (koff) is 5.47e-05 s⁻¹ and the on-rate constant (kon) was found to be 34000 M⁻¹ s⁻¹.

B5: Feline 15H05 1.1 K42N_V43I (antibody, V domains shown)
VH: B1 VH
VL: B1 VL with V46L, N49Y
In test [2], B5 showed a dissociation constant Kd of 9.42 nM, a koff of 0.0022 s⁻¹ and a kon of 234000 M⁻¹ s⁻¹.

B6: Feline 15H05 1.1 (antibody, V domains shown)
VH: B1 VH
VL: B1 VL with N42K, I43V, V46L, N49Y
notes: Feline heavy and kappa constant regions
Take B6: in test [1], the off-rate constant (koff) amounted to 1.36e-07 s⁻¹ and the on-rate (kon) amounted to 27000 M⁻¹ s⁻¹. In test [2], this molecule registered a dissociation constant (Kd) of 13.5 nM, an off-rate constant (koff) of 0.00131 s⁻¹ and a kon of 97100 M⁻¹ s⁻¹.

B7: Feline 15H05 1.1 FW3 (antibody, V domains shown)
VH: B1 VH
VL: B1 VL with N42K, I43V, V46L, N49Y, S60P, D70H, S76T, E79Q, A83I
In test [1], B7 gave a Kd of 0.13 nM, a dissociation rate constant (koff) of 3.91e-07 s⁻¹ and an on-rate (kon) of 3000 M⁻¹ s⁻¹. In addition, in test [2], the Kd amounted to 0.0564 nM, the koff is 1.21e-05 s⁻¹ and the kon worked out at 214000 M⁻¹ s⁻¹.

B8: Feline 15H05 1.1 FW1 (antibody, V domains shown)
VH: B1 VH
VL: B2 VL with N42K, I43V, V46L, N49Y, P60S, H70D, T76S, Q79E, I83A, N107K
Take B8: in test [1], the koff worked out at 0.0156 s⁻¹ and the kon is 19200 M⁻¹ s⁻¹. In test [2], this molecule returned a Kd of 564 nM, an off-rate constant (koff) of 0.00286 s⁻¹ and a kon of 5060 M⁻¹ s⁻¹.

B9: Feline 15H05 1.1 K42N (antibody, V domains shown)
VH: B1 VH
VL: B1 VL with I43V, V46L, N49Y
In test [2], B9 yielded a Kd of 6770 nM, a koff of 0.011 s⁻¹ and an on-rate (kon) of 1630 M⁻¹ s⁻¹.

B10: Feline 15H05 2.3 (antibody, V domains shown)
VH: B1 VH with S28G, L37V, A40S
VL: EVVLTQSSAFLSRTLKEKATITCRASQGISIWLSWYQQKPNQAPKLLVKKASNLHIGAPSRFSGSGSGTDFTLTISSPEPEDAATYYCLQSQTYPLTFGGGTKLGDQ
notes: as for B6
Turning to B10, in test [2], the affinity, expressed as Kd, was 1.57 nM; the off-rate (koff) turned out to be 0.000535 s⁻¹; the kon was 341000 M⁻¹ s⁻¹.

B11: Feline 15H05 1.1 FW2_3 (antibody, V domains shown)
VH: B1 VH
VL: B1 VL with S60P, D70H, S76T, E79Q, A83I
In test [1], B11 registered a dissociation rate constant (koff) of 0.00193 s⁻¹ and a kon of 9050 M⁻¹ s⁻¹. In test [2], this molecule registered a Kd of 123 nM, an off-rate constant (koff) of 0.00116 s⁻¹ and a kon of 9490 M⁻¹ s⁻¹.

B12: Feline 15H05 3.1 (antibody, V domains shown)
VH: B1 VH with T13K, A42E
VL: B1 VL with N42K, I43V, V46L, N49Y
notes: as for B6
With B12, in test [1], the koff was 2.11e-05 s⁻¹ and the kon worked out at 26500 M⁻¹ s⁻¹. In addition, in test [2], the dissociation constant (Kd) amounted to 37.1 nM, the koff was found to be 0.00166 s⁻¹ and the on-rate (kon) came out at 44700 M⁻¹ s⁻¹.

B13: Feline 15H05 VH1 mouse VL (antibody, V domains shown)
VH: B1 VH
VL: B2 VL
notes: Heterochimeric antibody; also called felinized 15H05 VH1 with mouse 15H05 VL (heterochimera)
In test [1], B13 had an off-rate (koff) of 2.66e-07 s⁻¹ and a kon of 108000 M⁻¹ s⁻¹. In test [2], this molecule registered a Kd of 0.168 nM, a koff of 2.2e-05 s⁻¹ and an on-rate constant (kon) of 131000 M⁻¹ s⁻¹.

B14: Feline 15H05 1.1 V43I (antibody, V domains shown)
VH: B1 VH
VL: B1 VL with N42K, V46L, N49Y
With B14, in test [2], binding was characterised by a dissociation constant (Kd) of 13.6 nM, the koff worked out at 0.000401 s⁻¹ and the association rate constant (kon) worked out at 29400 M⁻¹ s⁻¹.

B15: Feline 15H05 1.1 Y49N (antibody, V domains shown)
VH: B1 VH
VL: B1 VL with N42K, I43V, V46L
For the molecule B15, in test [2], binding was put at a Kd of 39.5 nM, the koff worked out at 0.00095 s⁻¹ and the kon turned out to be 24000 M⁻¹ s⁻¹.

B16: Feline 15H05 2.1 (antibody, V domains shown)
VH: B1 VH with S28G, L37V, A40S
VL: B1 VL with N42K, I43V, V46L, N49Y
notes: as for B6
In test [1], B16 registered a koff of 0.000866 s⁻¹ and a kon of 525000 M⁻¹ s⁻¹. Further, in test [2], the dissociation constant (Kd) was determined as 22.3 nM, the koff turned out to be 0.00465 s⁻¹ and the kon turned out to be 208000 M⁻¹ s⁻¹.

B17: Feline 15H05 1.1 L46V (antibody, V domains shown)
VH: B1 VH
VL: B1 VL with N42K, I43V, N49Y
Take B17: in test [2], the Kd turned out to be 22.8 nM, the off-rate (koff) turned out to be 0.000811 s⁻¹ and the association rate constant (kon) was 35500 M⁻¹ s⁻¹.

B18: Feline 15H05 3.3 (antibody, V domains shown)
VH: B1 VH with T13K, A42E
VL: B10 VL
notes: as for B6
In test [2], B18 returned a Kd of 11.6 nM, a koff of 0.000886 s⁻¹ and a kon of 76300 M⁻¹ s⁻¹.

B19: Feline 15H05 1.1 FW1_2 (antibody, V domains shown)
VH: B1 VH
VL: B2 VL with P60S, H70D, T76S, Q79E, I83A, N107K
For the molecule B19, in test [1], the koff is 3.82e-06 s⁻¹ and the kon amounted to 6910 M⁻¹ s⁻¹. In test [2], this molecule yielded a Kd of 0.887 nM, a dissociation rate constant (koff) of 6.7e-06 s⁻¹ and a kon of 7560 M⁻¹ s⁻¹.
